Patent publication US8629107B2, “Genes and proteins associated with angiogenesis and uses thereof” (National Jewish Health, priority 2005, dated 2014)

Experiments:
MB114 cells = assay: cell proliferation, [3H]thymidine incorporation assay; format: cell-based, murine; conditions: serum-starved MB114 cells stably expressing the transgene vs GFP, 24 h, 37° C.
Procedure: (§1) The effect putative angiogenic agents had on MB114 cell activities were determined as follows: (i) cell proliferation using a [^3H]thymidine incorporation assay as described (Albig et al, 2006; Albig and Schiemann, 2004; Albig and Schiemann, 2005); (ii) cell invasion through Matrigel matrices using a modified Boyden-chamber assay as described (Albig et al, 2006; Albig and Schiemann, 2004; Albig and Schiemann, 2005); (iii) p38 MAPK phosphorylation using immunoblot analyses as described (Albig et al, 2006; Albig and Schiemann, 2004; Albig and Schiemann, 2005); (iv) angiogenic sprouting in rat tail collagen matrices as described (Albig et al, 2006; Albig and Schiemann, 2004); and (v) Hes1- and SBE-driven luciferase reporter gene assays as described (Albig et al, 2006; Albig and Schiemann, 2004; Albig and Schiemann, 2005).
FIG. 1A show results from an experiment in which serum-starved MB114 cells, stably expressing either GFP or various putative angiogenic agents, were stimulated in the absence or presence of either bFGF (50 ng/ml) or EGF (10 ng/ml) for 24 h at 37° C. Differences in MB114 cell DNA synthesis was determined by measuring [^3H]thymidine incorporation into cellular DNA. […] In this experiment, invasion of MB114 cells expressing either GFP or various putative angiogenic agents through synthetic basement membranes was determined over 48 h using a modified Boyden-chamber assay.

Notch1 = biological target: T1, Notch1 (Mus musculus, UniProt Q01705); assay: Notch1 processing assay in human kidney 293T cells; format: cell-based; conditions: co-expression with Notch1 and Jagged-1 in 293T cells
T1 construct: expressed in transfected cells; host or cells: human kidney 293T cells, transient transfection (LT-1 liposomes)
Procedure: To monitor the effects of MAGP-2 on the processing and S3 cleavage of Notch1, human kidney 293T cells were transiently transfected in 6-well plates with LT-1 liposomes containing 0.5 μg/well of Notch1 (pCS2+mN1FL6MT), 0.5 μg/well Jagged-1 (pCS2+Jag1-6MT), or 1.5 μg/well of MAGP-2 (pcDNA3.1-MAGP-2/Myc-His) in all combinations. Forty-eight h post-transfection, the cells were washed with ice-cold PBS, lysed immediately in Buffer H/1% Triton X-100 [500 μl/well; (Schiemann et al, 2002)], and incubated on ice for 30 min. Afterward, insoluble material was removed by microcentrifugation and 100 μl of the resulting clarified extract was fractionated through 6% SDS-PAGE gels. The fractionated proteins were transferred electrophoretically to nitrocellulose and probed with anti-Myc 9E10 monoclonal antibodies (Covance, Princeton, N.J.) to visual Notch1 cleavage species.
Activation of Notch1 signaling involves three proteolytic processing events, termed S1, S2, and S3, that produce three distinct Notch1 fragments, termed TMIC, NEXT, and NICD, respectively (Mumm et al, 2000). […] The inventors tested this possibility by transiently transfecting human 293T cells with cDNAs encoding Myc-tagged versions of Notch1, Jagged-1, and MAGP-2 in all combinations, and subsequently monitored changes in NICD production and accumulation by immunoblot analyses using anti-Myc monoclonal antibodies. […]

[1] = test system: Smad2/3-binding element (SBE); assay: SBE-driven luciferase reporter gene assay in MB114 cells; format: cell-based, murine; conditions: MAGP-2-expressing vs GFP-expressing MB114 cells; TGF-β1 0-5 ng/ml overnight
Procedure: as §1
To further investigate the impact of MAGP-2 on Notch1 processing and NICD accumulation, the inventors took advantage of recent findings showing that the ability of TGF-β to induce Hes1 promoter activity requires Smad3 to interact physically with NICD (Blokzijl et al, 2003), a reaction that is dispensable for canonical Smad3-mediated signaling stimulated by TGF-β (Blokzijl et al, 2003). […]

MCA102 fibrosarcomas = MCA102 fibrosarcomas produced in mice; format: in vivo; conditions: unpublished observation

T1 sequence (Q01705 19-2531): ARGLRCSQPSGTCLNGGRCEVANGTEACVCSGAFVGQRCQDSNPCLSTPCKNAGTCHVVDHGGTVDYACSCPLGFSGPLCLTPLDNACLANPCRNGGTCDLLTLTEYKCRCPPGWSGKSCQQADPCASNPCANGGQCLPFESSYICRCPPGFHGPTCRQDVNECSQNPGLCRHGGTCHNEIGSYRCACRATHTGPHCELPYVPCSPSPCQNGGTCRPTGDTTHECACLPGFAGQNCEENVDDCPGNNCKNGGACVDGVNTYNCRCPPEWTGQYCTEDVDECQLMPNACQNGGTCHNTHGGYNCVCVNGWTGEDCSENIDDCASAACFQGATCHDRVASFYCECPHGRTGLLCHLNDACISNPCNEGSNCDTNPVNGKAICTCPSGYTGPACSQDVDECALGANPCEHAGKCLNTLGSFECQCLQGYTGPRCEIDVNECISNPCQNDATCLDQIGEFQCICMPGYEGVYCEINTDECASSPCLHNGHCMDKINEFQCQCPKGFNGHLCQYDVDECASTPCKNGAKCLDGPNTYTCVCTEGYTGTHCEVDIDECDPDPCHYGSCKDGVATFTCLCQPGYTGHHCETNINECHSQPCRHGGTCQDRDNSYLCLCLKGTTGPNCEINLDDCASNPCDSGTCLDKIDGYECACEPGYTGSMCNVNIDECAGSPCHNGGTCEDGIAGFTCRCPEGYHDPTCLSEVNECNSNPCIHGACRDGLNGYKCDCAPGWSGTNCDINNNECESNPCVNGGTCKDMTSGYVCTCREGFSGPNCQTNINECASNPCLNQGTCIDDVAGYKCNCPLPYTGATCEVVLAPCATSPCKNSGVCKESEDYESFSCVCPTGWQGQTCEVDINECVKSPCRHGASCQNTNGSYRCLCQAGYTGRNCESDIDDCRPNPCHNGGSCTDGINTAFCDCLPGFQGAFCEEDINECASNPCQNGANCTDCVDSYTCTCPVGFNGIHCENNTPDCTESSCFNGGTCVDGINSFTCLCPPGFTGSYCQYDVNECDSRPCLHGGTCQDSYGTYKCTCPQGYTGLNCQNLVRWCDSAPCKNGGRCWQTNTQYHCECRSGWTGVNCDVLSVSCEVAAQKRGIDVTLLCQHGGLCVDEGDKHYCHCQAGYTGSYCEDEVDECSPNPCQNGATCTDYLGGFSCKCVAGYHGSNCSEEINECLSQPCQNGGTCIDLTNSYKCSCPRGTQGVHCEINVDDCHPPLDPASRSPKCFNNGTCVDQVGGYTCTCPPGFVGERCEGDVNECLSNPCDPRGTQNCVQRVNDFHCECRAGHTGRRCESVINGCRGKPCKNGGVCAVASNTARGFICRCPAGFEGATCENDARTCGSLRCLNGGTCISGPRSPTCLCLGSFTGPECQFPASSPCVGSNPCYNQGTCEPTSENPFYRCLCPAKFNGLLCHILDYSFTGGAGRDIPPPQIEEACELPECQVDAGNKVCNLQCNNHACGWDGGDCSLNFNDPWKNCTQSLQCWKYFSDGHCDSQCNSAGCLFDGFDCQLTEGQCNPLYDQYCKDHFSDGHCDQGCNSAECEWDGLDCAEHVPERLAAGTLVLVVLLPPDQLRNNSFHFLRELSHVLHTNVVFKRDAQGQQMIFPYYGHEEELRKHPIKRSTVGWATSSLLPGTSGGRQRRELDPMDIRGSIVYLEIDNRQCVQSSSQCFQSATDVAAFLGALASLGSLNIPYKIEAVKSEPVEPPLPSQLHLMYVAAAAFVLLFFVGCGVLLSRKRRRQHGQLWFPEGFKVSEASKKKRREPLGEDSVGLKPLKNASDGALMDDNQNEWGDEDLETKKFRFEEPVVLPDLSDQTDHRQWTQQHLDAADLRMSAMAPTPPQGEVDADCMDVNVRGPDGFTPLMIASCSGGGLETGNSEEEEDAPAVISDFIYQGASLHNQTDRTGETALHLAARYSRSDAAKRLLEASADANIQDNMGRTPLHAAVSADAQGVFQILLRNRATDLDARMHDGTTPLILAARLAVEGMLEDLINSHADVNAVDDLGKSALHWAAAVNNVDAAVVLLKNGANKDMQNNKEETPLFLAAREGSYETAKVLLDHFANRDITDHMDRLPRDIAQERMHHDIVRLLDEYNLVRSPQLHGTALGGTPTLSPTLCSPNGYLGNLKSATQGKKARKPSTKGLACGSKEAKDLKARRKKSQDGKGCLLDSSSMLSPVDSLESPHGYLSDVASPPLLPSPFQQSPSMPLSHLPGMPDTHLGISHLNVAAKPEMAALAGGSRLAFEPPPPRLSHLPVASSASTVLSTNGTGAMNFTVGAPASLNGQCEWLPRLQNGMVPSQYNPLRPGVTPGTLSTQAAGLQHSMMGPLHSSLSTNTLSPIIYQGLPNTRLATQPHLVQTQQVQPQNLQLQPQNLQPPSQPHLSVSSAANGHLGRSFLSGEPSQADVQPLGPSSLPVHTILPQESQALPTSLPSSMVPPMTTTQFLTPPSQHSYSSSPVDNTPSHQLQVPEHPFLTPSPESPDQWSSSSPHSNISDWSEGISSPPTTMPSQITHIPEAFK

B1: MAGP-2: secreted glycoprotein (25 kDa); stably expressed in MB114 cells by bicistronic retroviral transduction, Myc-His tagged (protein)
chain: QRGDDVPETFTDDPNLVNDPSTDDTALADITPSTDDLAGDKNATAECRDEKFACTRLYSVHRPVRQCVHQSCFTSLRRMYIINNEICSRLVCKEHEAMKDELCRQMAGLPPRRLRRSNYFRLPPCENMNLQRPDGL
modifications: left off: small tags and cut ends
notes: secreted glycoprotein (25 kDa); stably expressed in MB114 cells by bicistronic retroviral transduction, Myc-His tagged
For B1, the “proliferative response of MB114 cells to EGF ([3H]thymidine incorporation into cellular DNA)” value (MB114 cells; EGF 10 ng/ml) was “significantly enhanced”, the “proliferative response of MB114 cells to bFGF ([3H]thymidine incorporation into cellular DNA)” value (MB114 cells; bFGF 50 ng/ml) was “significantly enhanced” and the “ability of Jagged-1 to induce Notch1 cleavage and NICD production” value (Notch1) was “reduced significantly”. For the same molecule, the “TGF-β stimulation of SBE-luciferase activity” value [1] was “no effect”, the “growth of MCA102 fibrosarcomas produced in mice” value (MCA102 fibrosarcomas) was “significantly increase” and the “vascularization of MCA102 fibrosarcomas produced in mice” value (MCA102 fibrosarcomas) was “significantly increase”.
